This is an account of results in patent publication US20030180895A1.

Common to all, as to assay: cell-based or functional assay
In assay [1] the target is Bacillus subtilis xylanase A mutant D119K (Bacillus subtilis) (UniProt P18429).
For assay [2], the target named is Bacillus subtilis xylanase A mutant D11F (Bacillus subtilis) (UniProt P18429).
The target of assay [3] is Bacillus subtilis xylanase A mutant G12F (Bacillus subtilis) (UniProt P18429).
In assay [4] the target is Bacillus subtilis xylanase A mutant R122A (Bacillus subtilis) (UniProt P18429).
Assay [5] concerns the target Bacillus subtilis xylanase A mutant T124D (Bacillus subtilis) (UniProt P18429).
In assay [6] the target is Bacillus subtilis xylanase A mutant Y113K (Bacillus subtilis) (UniProt P18429).

Regarding wheat endogenous xylanase inhibitor, the Relative inhibition, % at 1, 26 XIU/ml in assay [1] stood at 94%; in assay [2] it was 114%; in assay [3] it was 110%; in assay [4] it was 78%; in assay [5], 87%; in assay [6], 103%. The Relative inhibition, % at 3, 15 XIU/ml in assay [1] came to 67%; in assay [2], 119%; in assay [3] it was 106%; in assay [4], 46%; in assay [5], 52%; in assay [6] it was 85%. The Relative inhibition, % at 6, 3 XIU/ml is 40% in assay [1]; 116% in assay [2]; 100% in assay [3]; 33% in assay [4]; 32% in assay [5]; 63% in assay [6]. For the same substance, the Relative inhibition, % at 12, 6 XIU/ml in assay [1] was found to be 26%; in assay [2] it was 115%; in assay [3] it was 92%; in assay [4] it was 26%; in assay [5], 25%; in assay [6] it was 47%.
